Experimental findings from paper PMC5446404 are described below.

For the test, the target named is recombinant human fortilin (Strep-tag II), biotinylated (human) (UniProt P13693). Kind of test: BLI. Conditions: domain or fragment.
Sequence of recombinant human fortilin (Strep-tag II), biotinylated (human) (P13693 whole entry, the tested form may be a part): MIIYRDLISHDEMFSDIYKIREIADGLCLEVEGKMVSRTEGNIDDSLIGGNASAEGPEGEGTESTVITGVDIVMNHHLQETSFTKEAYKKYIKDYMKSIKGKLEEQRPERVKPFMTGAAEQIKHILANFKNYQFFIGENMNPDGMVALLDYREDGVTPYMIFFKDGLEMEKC

Sequence of GST-IRE1α-L (aa 1-70) (O75460 19-70): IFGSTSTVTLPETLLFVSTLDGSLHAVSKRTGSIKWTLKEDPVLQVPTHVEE

For “GST-IRE1α-L (aa 1-70) (from UniProt O75460 19-70)”, the Kd (in general, the equilibrium constant for the complex coming apart) is 18 mM.
